In this assay the target is Alkaline phosphatase-hNogo-A(1055-1120) (human, UniProt P05187 23-511). As to the kind of experiment: AP-fusion ligand binding to COS-7 cells transfected with myc-mNgR3; expression checked by anti-myc staining and immunoblot. The source says:
The mouse NgR3 cDNA was amplified by PCR from mouse adult brain cDNA, from the signal sequence to the stop codon, and ligated into the pSecTag2 vector such that the vector encodes a signal sequence followed by a myc tag followed by the mature mNgR3 sequence. This plasmid was transfected into COS07cells, and expression of a myc-tagged protein of the predicted size was verified by immunoblot analysis.

Here are results for 1 molecule from US20030124704A1 (YALE UNIVERSITY, published 2003).

Alkaline phosphatase-hNogo-A(1055-1120), sequence (P05187 other isoform, or with tags, fused parts or gaps): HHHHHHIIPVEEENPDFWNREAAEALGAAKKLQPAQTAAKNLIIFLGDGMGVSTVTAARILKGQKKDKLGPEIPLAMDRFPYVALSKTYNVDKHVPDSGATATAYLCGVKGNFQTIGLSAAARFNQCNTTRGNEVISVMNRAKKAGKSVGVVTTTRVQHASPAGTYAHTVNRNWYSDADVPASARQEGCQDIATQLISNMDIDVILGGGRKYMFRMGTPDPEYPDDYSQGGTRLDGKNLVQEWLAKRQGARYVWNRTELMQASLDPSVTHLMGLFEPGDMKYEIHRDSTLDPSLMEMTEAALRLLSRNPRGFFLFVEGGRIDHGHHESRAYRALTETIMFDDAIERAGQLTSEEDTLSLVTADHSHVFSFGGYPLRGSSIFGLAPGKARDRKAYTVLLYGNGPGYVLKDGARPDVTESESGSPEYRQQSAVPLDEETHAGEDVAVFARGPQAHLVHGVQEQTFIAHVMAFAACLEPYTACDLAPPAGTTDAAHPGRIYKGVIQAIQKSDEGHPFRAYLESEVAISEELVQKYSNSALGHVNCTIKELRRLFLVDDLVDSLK

B1: myc epitope-tagged mouse NgR3 (mNgR3) expressed on COS-7 cells (receptor, not shown: small tags and cut ends)
chain: CPRDCVCYPAPMTVSCQAHNFAAIPEGIPEDSERIFLQNNRITFLQQGHFSPAMVTLWIYSNNITFIAPNTFEGFVHLEELDLGDNRQLRTLAPETFQGLVKLHALYLYKCGLSALPAGIFGGLHSLQYLYLQDNHIEYLQDDIFVDLVNLSHLFLHGNKLWSLGQGIFRGLVNLDRLLLHENQLQWVHHKAFHDLHRLTTLFLFNNSLTELQGDCLAPLVALEFLRLNGNAWDCGCRARSLWEWLRRFRGSSSAVPCATPELRQGQDLKLLRVEDFRNCTGPVSPHQIKSHTLTTSDRAARKEHHPSHGASRDKGHPHGHPPGSRSGYKKAGKNCTSHRNRNQISKVSSGKELTELQDYAPDYQHKFSFDIMPTARPKRKGKCARRTPIRAPSGVQQAS
notes: The cDNA was amplified from mouse adult brain; Any processing of the C-terminal GPI signal is not described; also called myc-NgR3
As to B1, the binding result was “no binding”.
